B1: 5-FAM/Cy5-NR2B (peptide)
peptide: 5FAM-KSGYEKLSSIESDV
modifications: also: entry also covers Cy5-NR2B: CSG linker, Cy5-maleimide on Cys
notes: Kd said to be independent of the fluorophore; also called 5-FAM-NR2B; 5-Fam-NR2B peptide
B2: HIS-PDZ3 protein (PSD-95 PDZ3, residues 309-401, with tag MHHHHHPRGS) (other)
chain: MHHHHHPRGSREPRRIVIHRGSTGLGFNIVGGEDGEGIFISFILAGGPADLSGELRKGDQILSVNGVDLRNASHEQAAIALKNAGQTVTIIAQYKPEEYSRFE
B3: NR2B (1), non-fluorescent NR2B peptide KSG-YEKLSSIESDV (peptide)
peptide: KSGYEKLSSIESDV
notes: also called NR2B peptide (1); NR2B WT

In assay [1] the target is T1, HIS-PDZ1 protein (PSD-95 PDZ1, residues 61-151, with tag …) (human, UniProt P78352 61-151).
T1 construct: expressed in E. coli
In words: FP saturation binding.

Assay [2] has as its target HIS-PDZ2 protein (PSD-95 PDZ2, residues 155-249, with tag …) (human, UniProt P78352 155-249). In words: FP saturation binding.
The target of assay [3] is B2. Nature of the assay: FP saturation binding.
In assay [4] the target is T2, HIS-PDZ1-2 protein (PSD-95 PDZ1-2 tandem, residues 61-249, with tag …) (human, UniProt P78352 61-249). In words: FP saturation binding.
The next assay deals with T3, Tat-NR2B (3).
T3 construct: also called Tat-N2B (3); 20-mer Tat-NR2B peptide
In words: FP competition, fluorescent CRIPT probe.

For assay [5], the target named is T2, HIS-PDZ1-2 protein (PSD-95 PDZ1-2 …). Nature of the assay: FP competition, fluorescent NR2B probe.
Assay [6] has as its target B2. Nature of the assay: FP competition, fluorescent CRIPT probe.

Ends that are not written are not given here. * marks the point of attachment. 5FAM = O=C1OC2(c3ccc(O)cc3Oc3cc(O)ccc32)c2ccc(C(=O)*)cc21

A word on the Kd: it is a measure of binding affinity in units of concentration. Lower therefore signals higher affinity. Regarding B1, the Kd was 20 µM in assay [1], 3 µM in assay [2] and 1.7 µM in assay [4]. Besides, the binding result in assay [3] is “no binding”.

As to B2, in the assay with Tat-NR2B (3), the binding result is given as “no binding”.

Broadly, the Ki is the equilibrium dissociation constant of an inhibitor or competing ligand from its target. The low end stands for higher affinity, the high end for lower affinity. For the molecule B3, in assay [5], the affinity corresponds to a Ki of 6.8 µM. The binding result in assay [6] is “no binding”.

The values are drawn from patent publication US20160176924A1 (UNIVERSITY OF COPENHAGEN, published 2016).
